The record followed here is patent US20180258181A1 (Bayer, published 2018).

Substitutions are numbered along the chain they refer to.

Sequences and labels used below:
B1: MOR06657 IgG (antibody, V domains shown)
VH: QVQLVQSGAEVKKPGSSVKVSCKASGGTFSSYYFSWVRQAPGQGLEWMGGIIPKFGSANYAQKFQGRVTITADESTSTAYMELSSLRSEDTAVYYCARRTSMDYWGQGTLVTVSS
VL: DIALTQPASVSGSPGQSITISCTGTSSDVGGYNYVSWYQQHPGKAPKLMIYSVSKRPSGVSNRFSGSKSGNTASLTISGLQAEDEADYYCATWDHSQMGKVFGGGTKLTVLG
B2: MOR06643 IgG (antibody, V domains shown)
VH: QVQLVESGGGLVQPGGSLRLSCAASGFTFSDYAMSWVRQAPGKGLEWVSAIMYDSSSTFYADSVKGRFTISRDNSKNTLYLQMNSLRAEDTAVYYCARINYIYKGVHFDYWGQGTLVTVSS
VL: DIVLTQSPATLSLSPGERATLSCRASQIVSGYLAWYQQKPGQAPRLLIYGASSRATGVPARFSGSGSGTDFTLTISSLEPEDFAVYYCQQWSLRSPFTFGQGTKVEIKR
B3: MOR06638 IgG (antibody, V domains shown)
VH: QVQLVQSGAEVKKPGASVKVSCKASGYTFTGNYINWVRQAPGQGLEWMGIINPHGGDTKYAQKFQGRVTMTRDTSISTAYMELSSLRSEDTAVYYCARWHHGTWIFDYWGQGTLVTVSS
VL: DIVLTQPPSVSGAPGQRVTISCSGSSSNIGSNYVSWYQQLPGTAPKLLIYNDNQRPSGVPDRFSGSKSGTSASLAITGLQSEDEADYYCSSWDRADGSYVFGGGTKLTVLG
B4: MOR06626 IgG (antibody, V domains shown)
VH: B3 VH with H54T, G55K, D57W, K59L
VL: DIVLTQPPSVSGAPGQRVTISCSGSSSNIGSNYVSWYQQLPGTAPKLLIYNDNQRPSGVPDRFSGSKSGTSASLAITGLQSEDEADYYCSTYDRRTFSVFGGGTKLTVLG
B5: MOR06640 IgG (antibody, V domains shown)
VH: QVQLVQSGAEVKKPGESLKISCKGSGYSFTNYWIGWVRQMPGKGLEWMGVIMPSDSYTRYSPSFQGQVTISADKSISTAYLQWSSLKASDTAMYYCARYGHGMYGGALDVWGQGTLVTVSS
VL: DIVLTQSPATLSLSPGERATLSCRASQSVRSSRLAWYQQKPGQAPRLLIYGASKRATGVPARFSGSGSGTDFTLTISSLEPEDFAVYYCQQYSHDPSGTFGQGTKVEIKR
B6: MOR06642 IgG (antibody, V domains shown)
VH: B5 VH
VL: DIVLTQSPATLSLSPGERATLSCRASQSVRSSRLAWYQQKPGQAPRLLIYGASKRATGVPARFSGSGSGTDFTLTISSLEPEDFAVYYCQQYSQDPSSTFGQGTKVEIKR
B7: MOR07111 IgG (antibody, V domains shown)
VH: B5 VH
VL: DIVLTQSPATLSLSPGERATLSCRASQSVRSSRLAWYQQKPGQAPRLLIYGASKRATGVPARFSGSGSGTDFTLTISSLEPEDFAVYYCQQFYSKPITFGQGTKVEIKR
B8: MOR07265 IgG (antibody, V domains shown)
VH: B5 VH with V50F, M52W, S54V, Y57W, R59Q
VL: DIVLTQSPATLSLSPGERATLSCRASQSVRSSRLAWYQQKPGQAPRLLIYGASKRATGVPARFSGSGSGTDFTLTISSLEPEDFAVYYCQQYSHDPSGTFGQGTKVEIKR
B9: MOR06631 IgG (antibody, V domains shown)
VH: B5 VH with V50F, M52W, S54V, Y57W, R59Q
VL: B7 VL with V86T, F92Y, S94D, K95F, I97P
B10: MOR06669 IgG (antibody, V domains shown)
VH: B5 VH with V50I, M52W, S54I, Y57F, R59Q
VL: B7 VL with V86T, F92Y, S94D, K95F, I97P
B11: MF-A Fab (Fab, V domains shown)
VH: B1 VH
VL: B1 VL with A91G, T92A, D94A, S96M, Q97S, M98L
notes: Purified Fab
B12: MOR06657 Fab (Fab, V domains shown)
VH: B1 VH
VL: B1 VL
notes: Purified Fab
B13: MOR06643 Fab (Fab, V domains shown)
VH: B2 VH
VL: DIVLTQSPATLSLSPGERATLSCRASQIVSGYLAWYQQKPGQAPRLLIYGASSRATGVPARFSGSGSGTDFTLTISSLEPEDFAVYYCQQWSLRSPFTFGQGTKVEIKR
notes: Purified Fab
B14: MF-226 Fab (Fab, V domains shown)
VH: B3 VH with Q3E
VL: B4 VL
notes: Purified Fab
B15: MOR06638 Fab (Fab, V domains shown)
VH: B3 VH
VL: B3 VL
notes: Purified Fab
B16: MOR06626 Fab (Fab, V domains shown)
VH: B3 VH with H54T, G55K, D57W, K59L
VL: B4 VL
notes: Purified Fab
B17: MF-J Fab (Fab, V domains shown)
VH: B5 VH with Q3E
VL: B7 VL with V86T, F92Y, S94D, K95F, I97P
notes: Purified Fab
B18: MOR06669 Fab (Fab, V domains shown)
VH: B5 VH with V50I, M52W, S54I, Y57F, R59Q
VL: B7 VL with V86T, F92Y, S94D, K95F, I97P
notes: Purified Fab
B19: MOR06631 Fab (Fab, V domains shown)
VH: B5 VH with V50F, M52W, S54V, Y57W, R59Q
VL: B7 VL with V86T, F92Y, S94D, K95F, I97P
notes: Purified Fab
B20: MF-A IgG (antibody, V domains shown)
VH: B1 VH
VL: B1 VL with A91G, T92A, D94A, S96M, Q97S, M98L

For orientation: EC50 means the concentration giving half of the maximal effect. Read a high EC50 as a less potent agent. For orientation: Kd means a measure of binding affinity in units of concentration. What is called koff is the rate constant with which the complex falls apart.

T1 sequence (Q13421 other isoform, or with tags, fused parts or gaps limits assumed): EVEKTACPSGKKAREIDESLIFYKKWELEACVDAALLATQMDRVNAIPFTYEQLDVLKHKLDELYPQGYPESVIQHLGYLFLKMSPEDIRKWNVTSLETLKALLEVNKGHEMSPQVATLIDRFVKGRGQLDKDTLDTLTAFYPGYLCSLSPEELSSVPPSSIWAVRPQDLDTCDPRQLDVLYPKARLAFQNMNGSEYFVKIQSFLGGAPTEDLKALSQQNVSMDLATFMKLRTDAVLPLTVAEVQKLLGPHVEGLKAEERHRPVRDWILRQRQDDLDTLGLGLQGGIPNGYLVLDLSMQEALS
T3 sequence (Q13421 other isoform, or with tags, fused parts or gaps limits assumed): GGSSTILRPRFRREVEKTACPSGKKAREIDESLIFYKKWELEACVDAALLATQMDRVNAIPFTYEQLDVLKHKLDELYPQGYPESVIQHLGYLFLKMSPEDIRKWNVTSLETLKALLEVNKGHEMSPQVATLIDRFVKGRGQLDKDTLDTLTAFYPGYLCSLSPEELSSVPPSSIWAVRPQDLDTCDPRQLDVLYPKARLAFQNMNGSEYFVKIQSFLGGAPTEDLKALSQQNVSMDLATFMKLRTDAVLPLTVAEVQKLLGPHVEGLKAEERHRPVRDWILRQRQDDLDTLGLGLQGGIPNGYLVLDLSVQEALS

The first test addresses T1, mesothelin on NCI-H226 cells (UniProt Q13421 296-598).
T1 construct: whole, on cells; In the immunoblots the protein stood in a denatured cell extract
The experiment in a line: FACS titration, IgG on NCI-H226 cells. On the procedure:
FACS titration was performed in a 96 well microtiter plate, in which serial dilutions of the primary antibody in a volume of 80 μl of FACS buffer (3% FCS, 0.02% NaN₃ in PBS) were mixed with 20 μl of a cell suspension consisting of 10⁶ cells/ml which had been detached with accutase or trypsin/EDTA, and resuspended in FACS buffer. Incubation was performed at 4° C. for 1 hour with agitation. Cells were washed twice with FACS buffer and resuspended in 100 μl/well of anti-human PE conjugate solution in FACS buffer. Incubation and washing was performed as before. Analysis of cell-bound antibodies was done using the FACS Array device. EC₅₀ values were determined from fluorescence medians of duplicates using Prism 4.0 software (GraphPad) applying non-linear regression fit.
As to B1, the EC50 came out at 0.14 nM.
On the same count and under the same terms, with B2 the figure was 0.23 nM; with B3, 0.19 nM.
Same read-out and setting: as for B4, the figure is 0.44 nM; as for B5, 0.63 nM.
B6: the EC50 stood at 0.58 nM.
The same measure, in the same setting: as for B7, the figure is 0.8 nM.
The same measure, in the same setting: with B8 the figure was 1.11 nM; with B9, 2.02 nM; with B10, 0.41 nM.

In a further test the target is T2, human mesothelin (recombinant, soluble, purified; 40 kDa C-terminal polypeptide of the mesothelin precursor) (human, UniProt Q13421 296-598, limits assumed).
T2 construct: also called soluble mesothelin
The experiment in a line: SPR (Biacore), Fab on directly immobilized mesothelin. A general note: In SPR one partner is held on a chip, and binding of the other changes the refractive index at the surface.
For B11, the Kd worked out at 19 nM and the koff worked out at 0.079 s⁻¹.
For B12 the same measures were 0.95 nM and 0.0055 s⁻¹.
For B13 the same measures were 0.36 nM and 0.00028 s⁻¹.
With B14, the Kd worked out at 58 nM and the koff was 0.038 s⁻¹.
For the molecule B15, the Kd worked out at 16 nM and the koff was determined as 0.0063 s⁻¹.
Consider B16, for which the dissociation constant Kd is 0.67 nM and the koff came to 0.0012 s⁻¹.
As for B17, the Kd turned out to be 9.2 nM and the koff turned out to be 0.0029 s⁻¹.
Take B18: the Kd was determined as 0.24 nM and the koff is 8.1e-05 s⁻¹.
The matching figures for B19: 0.09 nM and 1.4e-05 s⁻¹.

Another test concerns the target T3, mesothelin on CHO-A9 cells (CHO-K1 stably transfected with the GPI-anchored C-terminal part of mesothelin) (Homo sapiens (Human), UniProt Q13421 287-598, GPI anchor).
T3 construct: In the immunoblots the protein stood in a denatured cell extract; also called mesothelin-expressing CHO-A9 cells
The experiment in a line: FACS with Scatchard analysis, IgG1 on CHO-A9 cells.
The molecule B20 came in with an EC50 of 0.05 nM.

The target in another test is T3, mesothelin on CHO-A9 cells (CHO-K1 …). The experiment in a line: live cell ELISA, IgG1 on CHO-A9 cells. Background: In an ELISA, binding on a coated surface is turned into a signal by an enzyme label.
B20 registered an EC50 of 0.8 nM.

The target in a further test is T4, murine mesothelin (recombinant) (murine, UniProt Q61468 298-600, limits assumed).
T4 construct: Covalently immobilized on the Biacore chip
T4 sequence (looked up): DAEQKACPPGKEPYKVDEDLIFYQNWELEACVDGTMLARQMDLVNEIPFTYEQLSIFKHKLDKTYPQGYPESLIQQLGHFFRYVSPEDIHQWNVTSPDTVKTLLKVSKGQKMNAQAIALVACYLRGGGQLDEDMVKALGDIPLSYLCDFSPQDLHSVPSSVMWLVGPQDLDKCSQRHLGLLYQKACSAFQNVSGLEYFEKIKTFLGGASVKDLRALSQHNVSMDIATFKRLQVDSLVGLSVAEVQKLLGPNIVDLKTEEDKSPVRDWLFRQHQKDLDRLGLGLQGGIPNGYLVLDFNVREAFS
The experiment in a line: SPR (Biacore 3000), Fab on covalently immobilized murine mesothelin. As for the experimental part: Shown in Table 5 are results of Biacore and ELISA studies showing cross-reactivity of antibodies of the invention to murine mesothelin. The kinetic constants kₒₙ and koff were determined with serial dilutions of the respective purified Fab fragment binding to covalently immobilized human or murine mesothelin using the Biacore 3000 instrument (Biacore, Uppsala, Sweden). Covalent antigen immobilization was achieved by a standard EDC-NHS coupling procedure. Kinetic measurements were done in PBS, pH 7.2 at a flow rate of […] using Fab concentration ranging from 1.5-500 nM. Injection time for each concentration was 1 min, followed by 3 min dissociation phase. For regeneration 5 μl 10 mM glycine buffer, pH 1.8 was used. All sensograms were fitted using the BIA evaluation software 3.1 (Biacore).
For B11, the Kd is 670 nM and the koff was 0.27 s⁻¹.
For B12 the same measures were 360 nM and 0.16 s⁻¹.
The matching figures for B14: 1280 nM and 0.14 s⁻¹.
Turning to B15, the equilibrium dissociation constant (Kd) is 320 nM and the koff amounted to 0.04 s⁻¹.
Turning to B16, the Kd turned out to be 6.7 nM and the koff came to 0.0098 s⁻¹.

Another test has as its target T2, human mesothelin (recombinant, soluble, …). The experiment in a line: SPR (Biacore 3000), Fab on covalently immobilized human mesothelin.
For B11, the dissociation constant Kd was found to be 19 nM and the dissociation rate constant (koff) was 0.079 s⁻¹.
For B12 the same measures were 0.95 nM and 0.0055 s⁻¹.
For B14 the same measures were 58 nM and 0.038 s⁻¹.
For B15 the same measures were 16 nM and 0.0063 s⁻¹.
As to B16, the Kd worked out at 0.67 nM and the off-rate constant (koff) worked out at 0.0012 s⁻¹.
